Measurements taken from patent US20230250178A1.

Legend:
human CCR8 (human) [1] = target: human CCR8 (human) (UniProt P51685); assay: FACS, CHO-hCCR8
human CCR8 (human) [2] = target: human CCR8 (human) (UniProt P51685); assay: FACS, BODIPY-labelled antibody, HuT78
human CCR8 (human) [3] = target: human CCR8 (human) (UniProt P51685); assay: cell-based or functional assay
[4] = target: cynomolgus CCR8 (cynomolgus); assay: FACS, CHO-cynoCCR8
cynomolgus CCR8 (cynomolgus), sequence (O97665 other isoform, or with tags, fused parts or gaps): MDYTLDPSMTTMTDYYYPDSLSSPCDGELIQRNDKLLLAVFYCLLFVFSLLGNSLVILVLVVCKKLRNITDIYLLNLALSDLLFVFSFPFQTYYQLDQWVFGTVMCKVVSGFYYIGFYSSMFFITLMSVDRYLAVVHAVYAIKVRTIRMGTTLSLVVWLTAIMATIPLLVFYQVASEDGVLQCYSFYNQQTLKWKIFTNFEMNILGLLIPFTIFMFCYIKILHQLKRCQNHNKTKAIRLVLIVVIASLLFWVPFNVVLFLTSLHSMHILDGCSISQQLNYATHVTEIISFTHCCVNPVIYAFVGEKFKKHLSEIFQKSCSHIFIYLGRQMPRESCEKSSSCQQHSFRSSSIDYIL

EC50 (human CCR8 (human) [1]): 2.8 nM
FACS HuT78 [MFI] (human CCR8 (human) [2]): 50 MFI
IC50, Ca flux assay (human CCR8 (human) [3]): 1.3 nM
IC50, inhibition of CCL1 induced β-arrestin signaling (human CCR8 (human) [3]): 0.78 nM
EC50 [4]: 12.1 nM
B1: 433H (antibody, from another filing, V domains shown)
VH: EVQLVETGGGLVQPKGSLRLSCAASGFPFNTFAMNWVRQAPGKGLEWLARIRSKSNNYATYYADSVKDRFTISRDDSRRMLYLLMNNVKFEDTAIYYCVRGKENNYGYAMDYWGQGTSVTVSS
VL: DIVMTQAAPSVPVTPGESVSISCRSSQSLLHSNGNTYLYWFLQRPGQSPQLLIYRMSNLASGVPDRFSGSGSGTAFTLRISRVEAEDVGVYYCMQHLEYPFTFGIGTKLELKR
